From article PMC11211491, “Design of a covalent protein-protein interaction inhibitor of SRPKs to suppress angiogenesis and invasion of cancer cells” (Communications Chemistry, 2024)
aryl‑sulfonyl fluoride = aryl-sulfonyl fluoride group, a lysine-reactive covalent warhead for SuFEx reactions

Target: SRPK1ΔNS3 (UniProt Q96SB4)

Ac-RERARTRRK(aryl‑sulfonyl fluoride)RARTRERARTR-NH2 [DBS1-1] was tested. Which IC50 of inhibition of the phosphorylation of SRSF1 by SRPK1ΔNS3 (in vitro kinase assay, [32P]ATP); blocked pair SRPK1-SRSF1 did it give?
The IC50 of inhibition of the phosphorylation of SRSF1 by SRPK1ΔNS3 (in vitro kinase assay, [32P]ATP); blocked pair SRPK1-SRSF1 was 0.64 µM.
